Data on two molecules can be found in patent US20200140562A1 (Innovent, published 2020).

For assay [1], the target named is T1, human OX40 on cells (CHO-hOX40, 293HEK-hOX40, Jurkat-hOX40, activated primary CD4+ T cells) (human, UniProt P43489 29-277).
T1 sequence (looked up): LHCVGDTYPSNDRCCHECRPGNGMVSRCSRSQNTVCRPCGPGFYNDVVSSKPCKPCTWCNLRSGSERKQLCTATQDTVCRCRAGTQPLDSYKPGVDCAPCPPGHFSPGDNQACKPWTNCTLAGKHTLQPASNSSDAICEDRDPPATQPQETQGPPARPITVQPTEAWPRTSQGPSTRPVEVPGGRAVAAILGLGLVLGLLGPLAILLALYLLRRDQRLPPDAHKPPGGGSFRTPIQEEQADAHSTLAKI
As to the kind of experiment: cell-based or functional assay.

In assay [2] the target is T1, human OX40 on cells (CHO-hOX40, …). Put plainly: flow cytometry, CHO-hOX40, 100 nM.
Assay [3] deals with T2, human OX40_Fc (R&D Systems) (human, UniProt P43489 29-216).
T2 construct: Bought
As to the kind of experiment: BLI, IgG1 on tip, hOX40-Fc 50 nM, avid.

Assay [4] addresses T3, cyno OX40_Fc (Acro Biosystems) (cyno).
T3 construct: Bought
Put plainly: BLI, IgG1 on tip, cyno OX40-Fc 100 nM, avid. Background: BLI is a label-free optical method that tracks binding on a fibre tip over time.

Assay [5] addresses T4, mouse OX40Fc (Acro Biosystems) (mouse, UniProt P47741 20-211, limits assumed).
T4 construct: Bought; not shown: Fc
T4 sequence (looked up): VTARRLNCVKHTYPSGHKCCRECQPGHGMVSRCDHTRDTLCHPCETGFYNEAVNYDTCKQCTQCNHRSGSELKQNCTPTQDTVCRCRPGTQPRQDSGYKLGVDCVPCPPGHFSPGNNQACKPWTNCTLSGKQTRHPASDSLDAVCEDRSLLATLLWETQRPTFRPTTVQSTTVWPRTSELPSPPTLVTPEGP
As to the kind of experiment: BLI, IgG1 on tip, mouse OX40-Fc 100 nM, avid.

For assay [6], the target named is T1, human OX40 on cells (CHO-hOX40, …). As to the kind of experiment: flow cytometry, MFI on CHO-hOX40 over wild-type CHO. On the technique in general: A flow cytometer gives signals particle by particle.
Assay [7] shares this target. As to the kind of experiment: flow cytometry, CHO-hOX40.
For assay [8] the target is unchanged. Put plainly: flow cytometry, CHO-hOX40, 25 nM.
For assay [9] the target is unchanged. As to the kind of experiment: flow cytometry, CHO-hOX40, 50 nM.
Assay [10] has the same target. As to the kind of experiment: flow cytometry, CHO-hOX40, 100 nM. This is another data set of the same source.
Assay [11] has the same target. Put plainly: flow cytometry, CHO-hOX40, 200 nM.
Assay [12] shares this target. As to the kind of experiment: flow cytometry, CHO-hOX40, 12.5 nM.
Assay [13] shares this target. Put plainly: flow cytometry, CHO-hOX40, 6.25 nM.
For assay [14] the target is unchanged. Put plainly: flow cytometry, CHO-hOX40, 3.125 nM.
For assay [15] the target is unchanged. Put plainly: flow cytometry, CHO-hOX40, 1.5625 nM.
Assay [16] shares this target. Put plainly: flow cytometry, CHO-hOX40, 0.78125 nM.
Assay [17] has the same target. As to the kind of experiment: flow cytometry, CHO-hOX40, 0.390625 nM.
Assay [18] shares this target. As to the kind of experiment: flow cytometry, CHO-hOX40, 0.1953125 nM.
For assay [19] the target is unchanged. Put plainly: flow cytometry, CHO-hOX40, 0.09765625 nM.
The target is the same in assay [20]. As to the kind of experiment: flow cytometry, CHO-hOX40, 0.024414063 nM.
Assay [21] has the same target. Put plainly: flow cytometry, CHO-hOX40, 0.048828125 nM.

B1: ADI-23515, IgG1 format (antibody)
heavy: not shown
light: EIVLTQSPGTLSLSPGERATLSCRASQSVSSSYLAWYQQKPGQAPRLLIYGASSRATGIPDRFSGSGSGTDFTLTISRLEPEDFAVYYCQQSERSPFTFGGGTKVEIKRTVAAPSVFIFPPSDEQLKSGTASVVCLLNNFYPREAKVQWKVDNALQSGNSQESVTEQDSKDSTYSLSSTLTLSKADYEKHKVYACEVTHQGLSSPVTKSFNRGEC
notes: Made in yeast or CHO cells; also called ADI-23515-g1
B1: in assay [1], the “EC50, NFkB-luciferase reporter in Jurkat-hOX40 mixed with Raji cells” value was determined as 0.174 nM. Besides, in assay [2], the “CHO-OX40 binding intensity (MFI)” value is 181000 MFI. The equilibrium dissociation constant (Kd) (commonly the equilibrium constant for the complex coming apart) in assay [3] amounted to 0.273 nM; in assay [4], 1.09 nM; in assay [5] it was 8.98 nM. For the same molecule, the Fold difference in [6] is 1550 fold.

B2: Hu106-222 (IgG2) (antibody, V domains shown)
VH: QVQLVQSGSELKKPGASVKVSCKASGYTFTDYSMHWVRQAPGQGLKWMGWINTETGEPTYADDFKGRFVFSLDTSVSTAYLQISSLKAEDTAVYYCANPYYDYVSYYAMDYWGQGTLVTVSS
VL: DIQMTQSPSSLSASVGDRVTITCKASQDVSTAVAWYQQKPGKAPKLLIYSASYLYTGVPSRFSGSGSGTDFTFTISSLQPEDIATYYCQQHYSTPRTFGQGTKLEIK
For B2, the EC50 (as a rule, the concentration giving half of the maximal effect) in assay [7] was 8.37 nM. The MFI in assay [8] was 2.16e+06 MFI; in assay [9] it was 1.59e+06 MFI; in [10], 2.39e+06 MFI; in assay [11], 2.55e+06 MFI; in assay [12], 1.52e+06 MFI; in assay [13], 1.06e+06 MFI. Moreover, the MFI came to 660000 MFI in [14]; 334000 MFI in assay [15]; 188000 MFI in assay [16]; 101000 MFI in [17]; 49500 MFI in assay [18]; 28200 MFI in assay [19]. Also, the MFI in assay [20] worked out at 14600 MFI; in assay [21], 15400 MFI.
